# Laboratory results from patent US6808893.
# Experiments:
# [1] = target: EAAT4, full-length glutamate transporter (rat) (UniProt O35921); assay: cell-based or functional assay
# [2] = target: GTRAP4-48 (glutamate transporter 4 associated protein), full-length (rat) (UniProt Q9ES67); assay: cell-based or functional assay
# Sequence of GTRAP4-48 (glutamate transporter 4 associated protein), full-length (rat) (Q9ES67 whole entry): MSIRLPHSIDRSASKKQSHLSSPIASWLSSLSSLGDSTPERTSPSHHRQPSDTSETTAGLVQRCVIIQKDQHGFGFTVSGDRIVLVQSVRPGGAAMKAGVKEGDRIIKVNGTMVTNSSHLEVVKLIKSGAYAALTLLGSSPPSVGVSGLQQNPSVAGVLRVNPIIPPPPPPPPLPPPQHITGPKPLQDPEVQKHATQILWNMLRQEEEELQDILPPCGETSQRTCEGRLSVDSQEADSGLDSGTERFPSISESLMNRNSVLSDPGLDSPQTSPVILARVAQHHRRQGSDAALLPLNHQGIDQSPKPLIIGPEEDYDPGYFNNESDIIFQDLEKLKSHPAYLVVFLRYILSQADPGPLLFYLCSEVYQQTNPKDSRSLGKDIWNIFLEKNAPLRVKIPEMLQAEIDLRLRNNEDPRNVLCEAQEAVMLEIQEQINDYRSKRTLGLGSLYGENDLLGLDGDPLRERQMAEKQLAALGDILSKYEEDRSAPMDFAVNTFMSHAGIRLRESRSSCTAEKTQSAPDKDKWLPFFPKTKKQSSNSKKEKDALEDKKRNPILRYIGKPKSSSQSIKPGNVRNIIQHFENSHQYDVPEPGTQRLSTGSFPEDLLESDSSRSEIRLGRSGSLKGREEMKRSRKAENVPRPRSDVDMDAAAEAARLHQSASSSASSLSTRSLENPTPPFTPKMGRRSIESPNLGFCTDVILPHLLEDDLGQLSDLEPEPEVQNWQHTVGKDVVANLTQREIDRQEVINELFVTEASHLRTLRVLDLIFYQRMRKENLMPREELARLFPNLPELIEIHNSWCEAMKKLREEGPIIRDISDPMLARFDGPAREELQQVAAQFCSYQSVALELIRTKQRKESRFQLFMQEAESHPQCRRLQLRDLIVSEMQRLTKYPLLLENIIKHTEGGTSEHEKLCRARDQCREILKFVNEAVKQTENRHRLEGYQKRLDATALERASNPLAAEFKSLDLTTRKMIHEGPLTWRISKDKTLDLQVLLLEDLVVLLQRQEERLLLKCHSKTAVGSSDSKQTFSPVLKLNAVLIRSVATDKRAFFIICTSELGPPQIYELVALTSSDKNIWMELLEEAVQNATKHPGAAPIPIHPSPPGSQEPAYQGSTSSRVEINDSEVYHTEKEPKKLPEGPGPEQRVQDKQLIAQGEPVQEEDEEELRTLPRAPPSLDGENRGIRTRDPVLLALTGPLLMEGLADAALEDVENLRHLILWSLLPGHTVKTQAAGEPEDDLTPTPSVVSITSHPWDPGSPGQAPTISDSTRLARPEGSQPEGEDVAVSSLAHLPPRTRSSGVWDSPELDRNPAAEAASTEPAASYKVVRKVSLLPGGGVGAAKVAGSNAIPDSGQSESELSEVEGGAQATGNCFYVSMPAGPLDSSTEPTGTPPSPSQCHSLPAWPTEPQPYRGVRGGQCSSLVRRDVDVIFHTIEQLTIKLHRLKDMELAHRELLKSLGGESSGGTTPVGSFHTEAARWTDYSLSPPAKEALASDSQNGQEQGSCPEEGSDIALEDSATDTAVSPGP
# Sequence of EAAT4, full-length glutamate transporter (rat) (O35921 whole entry): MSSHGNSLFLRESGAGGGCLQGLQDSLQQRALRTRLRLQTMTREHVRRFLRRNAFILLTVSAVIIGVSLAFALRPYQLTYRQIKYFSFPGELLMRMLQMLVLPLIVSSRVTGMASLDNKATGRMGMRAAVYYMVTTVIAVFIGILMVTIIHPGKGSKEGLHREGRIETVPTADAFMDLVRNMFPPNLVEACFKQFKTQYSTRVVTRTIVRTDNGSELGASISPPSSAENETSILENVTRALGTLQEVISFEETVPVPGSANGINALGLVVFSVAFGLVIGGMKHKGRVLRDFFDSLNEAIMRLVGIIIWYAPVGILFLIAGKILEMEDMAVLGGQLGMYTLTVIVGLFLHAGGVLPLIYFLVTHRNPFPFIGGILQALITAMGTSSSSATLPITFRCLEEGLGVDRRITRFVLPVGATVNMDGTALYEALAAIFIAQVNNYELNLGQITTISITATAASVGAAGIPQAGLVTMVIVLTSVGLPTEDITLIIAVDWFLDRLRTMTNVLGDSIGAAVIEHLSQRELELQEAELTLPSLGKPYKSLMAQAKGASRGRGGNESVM
Km of Na+-dependent L-[3H]-glutamate uptake with GTRAP41 [1] [µM],Na+-dependent glutamate transport in HEK-rEAAT4 cells [1] [fold],Vmax of Na+-dependent L-[3H]-glutamate uptake with GTRAP41 [1] [pmol/mg/min],GTRAP4-48 mediated increase of EAAT4 uptake activity in HEK-rEAAT4 cells [2] [%],Substance
11,2,605,,"GTRAP4-41 (glutamate transporter 4 associated protein), full-length, Q9QWN8 2-2388"
,,,25,myc-tagged construct encoding the last 77 amino acids of EAAT4 (from UniProt O35921 485-561)
